Tests used:
MERTK = MERTK (UniProt Q12866); test: phosphorylation enrichment, bacterial display (enrichment ratio); higher = better substrate or ligand; peptides without Tyr show the background
Hck = Hck (UniProt P08631); test: as above
Fer (mouse) = test: as above
Fes = Fes (UniProt P07332); test: as above
EPHB1 = EPHB1 (UniProt P54762); test: as above
EPHB2 = EPHB2 (UniProt P29323); test: as above
c-Src = test: as above
AncSZ = test: as above
FGFR3 = FGFR3 (UniProt P22607); test: as above
Fyn = Fyn (UniProt P06241); test: as above
c-Abl (mouse) = test: as above
Jak2 = Jak2 (UniProt O60674); test: as above
FGFR1 = FGFR1 (UniProt P11362); test: as above
Sequence of FGFR1 (P11362 whole entry, looked up): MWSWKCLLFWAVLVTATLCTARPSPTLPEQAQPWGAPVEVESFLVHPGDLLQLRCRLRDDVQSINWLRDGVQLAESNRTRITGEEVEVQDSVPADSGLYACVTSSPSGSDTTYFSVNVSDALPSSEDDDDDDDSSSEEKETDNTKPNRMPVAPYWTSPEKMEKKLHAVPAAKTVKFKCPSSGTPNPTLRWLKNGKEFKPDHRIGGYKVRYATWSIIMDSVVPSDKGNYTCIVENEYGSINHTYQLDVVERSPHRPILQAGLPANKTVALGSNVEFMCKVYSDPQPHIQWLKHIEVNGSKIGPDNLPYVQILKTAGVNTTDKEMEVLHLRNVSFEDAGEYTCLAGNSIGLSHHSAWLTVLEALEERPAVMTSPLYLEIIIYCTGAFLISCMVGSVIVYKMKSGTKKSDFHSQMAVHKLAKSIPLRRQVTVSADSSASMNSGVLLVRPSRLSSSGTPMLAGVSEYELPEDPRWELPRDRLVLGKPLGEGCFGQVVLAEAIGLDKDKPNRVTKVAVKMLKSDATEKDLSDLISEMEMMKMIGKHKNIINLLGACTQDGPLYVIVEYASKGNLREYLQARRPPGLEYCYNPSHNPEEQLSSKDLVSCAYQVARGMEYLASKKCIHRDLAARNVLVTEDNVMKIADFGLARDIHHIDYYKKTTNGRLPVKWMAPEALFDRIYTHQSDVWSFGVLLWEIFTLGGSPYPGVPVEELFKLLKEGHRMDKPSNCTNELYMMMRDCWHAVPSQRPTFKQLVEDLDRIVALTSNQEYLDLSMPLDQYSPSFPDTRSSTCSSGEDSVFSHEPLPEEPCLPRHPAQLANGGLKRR

SHP2-C SH2 = test: SH2 binding enrichment of the phosphorylated peptide, bacterial display (enrichment ratio); higher = better substrate or ligand; peptides without Tyr show the background
c-Src SH2 = test: as above
Grb2 SH2 = Grb2 SH2 (UniProt P62993); test: as above
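Wherever SH2 binding enrichment of the phosphorylated peptide, bacterial display is given: peptide library displayed on the E. coli surface as eCPX fusions, selected cells deep-sequenced, score is each peptide's frequency after selection divided by its frequency in the input.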
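Wherever phosphorylation enrichment, bacterial display is given: 11-residue human phosphosite peptides and single-mutation variants displayed on the E. coli surface, counted by deep sequencing, each peptide's frequency after selection divided by its frequency in the unselected input library; frequency after pTyr selection over input frequency; kinase dosed for 20-30% of maximal phosphorylation in three min.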

Sequence of EPHB1 (P54762 whole entry, looked up): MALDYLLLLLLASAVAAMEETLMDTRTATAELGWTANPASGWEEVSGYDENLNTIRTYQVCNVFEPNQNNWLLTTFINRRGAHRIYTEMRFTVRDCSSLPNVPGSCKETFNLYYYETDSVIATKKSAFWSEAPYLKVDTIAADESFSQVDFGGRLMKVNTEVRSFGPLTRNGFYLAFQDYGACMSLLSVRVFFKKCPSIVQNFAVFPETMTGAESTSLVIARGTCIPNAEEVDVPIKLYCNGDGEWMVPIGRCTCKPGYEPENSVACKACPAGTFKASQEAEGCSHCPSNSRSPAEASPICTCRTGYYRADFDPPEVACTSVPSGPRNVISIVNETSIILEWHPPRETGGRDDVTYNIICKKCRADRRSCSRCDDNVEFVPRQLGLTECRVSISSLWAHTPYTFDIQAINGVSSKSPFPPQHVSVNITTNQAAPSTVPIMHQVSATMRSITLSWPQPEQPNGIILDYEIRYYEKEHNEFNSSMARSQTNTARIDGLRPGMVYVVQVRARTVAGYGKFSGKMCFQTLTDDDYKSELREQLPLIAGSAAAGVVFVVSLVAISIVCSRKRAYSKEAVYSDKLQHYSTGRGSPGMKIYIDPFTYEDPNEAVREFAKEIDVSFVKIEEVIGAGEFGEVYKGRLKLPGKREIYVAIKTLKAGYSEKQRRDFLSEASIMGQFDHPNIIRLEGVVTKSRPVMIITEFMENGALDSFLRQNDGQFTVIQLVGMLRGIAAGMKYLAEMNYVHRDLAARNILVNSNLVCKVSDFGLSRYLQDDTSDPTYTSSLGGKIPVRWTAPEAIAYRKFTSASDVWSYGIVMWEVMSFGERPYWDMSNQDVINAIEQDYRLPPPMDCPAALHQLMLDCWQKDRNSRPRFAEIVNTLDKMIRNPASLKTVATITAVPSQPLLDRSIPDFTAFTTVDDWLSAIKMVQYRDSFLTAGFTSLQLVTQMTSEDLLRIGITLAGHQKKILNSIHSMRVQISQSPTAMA
Sequence of Fes (P07332 whole entry, looked up): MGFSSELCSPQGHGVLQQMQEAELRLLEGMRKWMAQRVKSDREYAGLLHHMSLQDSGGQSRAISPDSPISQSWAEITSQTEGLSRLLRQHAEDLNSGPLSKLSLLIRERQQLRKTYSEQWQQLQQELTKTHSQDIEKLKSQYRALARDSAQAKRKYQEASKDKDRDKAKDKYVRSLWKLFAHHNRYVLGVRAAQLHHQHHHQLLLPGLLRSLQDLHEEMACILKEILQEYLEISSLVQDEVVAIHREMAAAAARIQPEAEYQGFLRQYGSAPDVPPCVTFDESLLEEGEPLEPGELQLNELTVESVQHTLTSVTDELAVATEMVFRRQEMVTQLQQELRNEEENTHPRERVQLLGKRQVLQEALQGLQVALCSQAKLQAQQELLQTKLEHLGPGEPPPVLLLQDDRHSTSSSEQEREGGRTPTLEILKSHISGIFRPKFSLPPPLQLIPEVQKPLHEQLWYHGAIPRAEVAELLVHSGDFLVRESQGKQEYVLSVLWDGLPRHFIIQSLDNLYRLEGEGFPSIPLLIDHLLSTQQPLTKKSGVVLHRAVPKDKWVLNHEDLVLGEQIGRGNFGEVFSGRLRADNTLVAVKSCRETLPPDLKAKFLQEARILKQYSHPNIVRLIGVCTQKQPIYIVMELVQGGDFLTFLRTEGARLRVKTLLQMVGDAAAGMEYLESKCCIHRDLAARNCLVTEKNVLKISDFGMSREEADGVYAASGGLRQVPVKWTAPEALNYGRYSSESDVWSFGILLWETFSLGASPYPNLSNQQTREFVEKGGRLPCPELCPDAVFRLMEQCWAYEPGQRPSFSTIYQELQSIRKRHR
Sequence of FGFR3 (P22607 whole entry, looked up): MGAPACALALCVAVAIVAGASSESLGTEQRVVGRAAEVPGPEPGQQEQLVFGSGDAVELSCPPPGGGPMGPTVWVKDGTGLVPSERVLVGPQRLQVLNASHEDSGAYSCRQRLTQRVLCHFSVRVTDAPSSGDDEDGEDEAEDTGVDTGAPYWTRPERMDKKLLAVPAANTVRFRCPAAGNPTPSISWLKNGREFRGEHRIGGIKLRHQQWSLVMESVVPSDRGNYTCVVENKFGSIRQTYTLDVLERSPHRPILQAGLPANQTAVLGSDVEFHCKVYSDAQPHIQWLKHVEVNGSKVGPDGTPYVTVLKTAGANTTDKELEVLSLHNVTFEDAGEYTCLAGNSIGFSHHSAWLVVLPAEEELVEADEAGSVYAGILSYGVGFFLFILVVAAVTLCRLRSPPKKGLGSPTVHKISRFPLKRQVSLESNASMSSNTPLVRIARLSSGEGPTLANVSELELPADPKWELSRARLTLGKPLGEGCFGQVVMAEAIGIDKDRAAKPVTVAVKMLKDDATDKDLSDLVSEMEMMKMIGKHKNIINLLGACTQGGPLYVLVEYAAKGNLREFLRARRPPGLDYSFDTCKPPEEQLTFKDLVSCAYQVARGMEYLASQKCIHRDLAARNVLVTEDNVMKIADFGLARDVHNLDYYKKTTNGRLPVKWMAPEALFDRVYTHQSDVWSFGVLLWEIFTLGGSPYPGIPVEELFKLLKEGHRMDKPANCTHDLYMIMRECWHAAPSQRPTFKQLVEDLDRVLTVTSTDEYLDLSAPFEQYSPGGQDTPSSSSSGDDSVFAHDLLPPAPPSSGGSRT
Sequence of EPHB2 (P29323 whole entry, looked up): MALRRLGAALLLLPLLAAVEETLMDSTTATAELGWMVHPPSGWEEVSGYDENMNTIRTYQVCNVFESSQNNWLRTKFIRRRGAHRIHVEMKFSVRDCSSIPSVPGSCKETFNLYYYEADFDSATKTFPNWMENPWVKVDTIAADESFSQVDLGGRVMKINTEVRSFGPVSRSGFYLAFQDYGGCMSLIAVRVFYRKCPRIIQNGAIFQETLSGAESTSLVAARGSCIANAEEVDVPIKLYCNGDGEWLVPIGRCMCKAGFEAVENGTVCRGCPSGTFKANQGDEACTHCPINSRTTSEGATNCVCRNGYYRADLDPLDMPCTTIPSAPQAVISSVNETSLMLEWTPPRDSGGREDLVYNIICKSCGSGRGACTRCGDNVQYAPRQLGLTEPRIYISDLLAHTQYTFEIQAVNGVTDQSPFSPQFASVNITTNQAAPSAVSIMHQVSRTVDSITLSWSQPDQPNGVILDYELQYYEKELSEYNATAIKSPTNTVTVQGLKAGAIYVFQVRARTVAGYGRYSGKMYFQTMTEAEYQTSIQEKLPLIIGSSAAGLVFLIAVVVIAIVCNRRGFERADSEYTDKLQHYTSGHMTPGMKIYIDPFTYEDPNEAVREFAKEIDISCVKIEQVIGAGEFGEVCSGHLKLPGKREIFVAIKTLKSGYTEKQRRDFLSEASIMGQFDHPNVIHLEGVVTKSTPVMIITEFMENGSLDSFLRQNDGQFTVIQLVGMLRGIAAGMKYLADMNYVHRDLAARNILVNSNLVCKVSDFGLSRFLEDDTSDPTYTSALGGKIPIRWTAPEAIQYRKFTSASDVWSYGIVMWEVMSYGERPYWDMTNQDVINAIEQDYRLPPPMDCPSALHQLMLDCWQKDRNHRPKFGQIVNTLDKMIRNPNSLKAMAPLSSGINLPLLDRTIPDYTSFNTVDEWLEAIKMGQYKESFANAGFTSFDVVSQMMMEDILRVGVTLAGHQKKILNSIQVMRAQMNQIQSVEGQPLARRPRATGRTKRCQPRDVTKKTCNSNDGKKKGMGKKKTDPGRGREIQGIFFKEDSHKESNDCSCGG
Sequence of Hck (P08631 whole entry, looked up): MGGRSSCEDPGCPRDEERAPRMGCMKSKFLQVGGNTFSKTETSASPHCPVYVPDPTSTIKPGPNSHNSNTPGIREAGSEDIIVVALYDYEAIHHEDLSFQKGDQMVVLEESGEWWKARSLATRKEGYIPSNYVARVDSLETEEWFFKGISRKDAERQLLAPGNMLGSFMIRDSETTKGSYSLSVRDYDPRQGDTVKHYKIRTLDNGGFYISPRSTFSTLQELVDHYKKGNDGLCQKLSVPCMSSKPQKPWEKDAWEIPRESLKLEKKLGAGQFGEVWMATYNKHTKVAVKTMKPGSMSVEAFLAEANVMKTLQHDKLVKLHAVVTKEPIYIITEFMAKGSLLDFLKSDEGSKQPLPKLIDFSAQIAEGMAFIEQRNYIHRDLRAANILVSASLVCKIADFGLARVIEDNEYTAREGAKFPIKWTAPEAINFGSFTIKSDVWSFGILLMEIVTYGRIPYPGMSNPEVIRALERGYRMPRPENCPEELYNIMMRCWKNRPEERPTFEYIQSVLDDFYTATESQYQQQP

| Sequence | SH2 binding enrichment (SHP2-C SH2) | SH2 binding enrichment (c-Src SH2) | SH2 binding enrichment (Grb2 SH2) | phosphorylation enrichment (MERTK) | phosphorylation enrichment (Hck) | phosphorylation enrichment (Fer (mouse)) | phosphorylation enrichment (Fes) | phosphorylation enrichment (EPHB1) | phosphorylation enrichment (EPHB2) | phosphorylation enrichment (c-Src) | phosphorylation enrichment (AncSZ) | phosphorylation enrichment (FGFR3) | phosphorylation enrichment (Fyn) | phosphorylation enrichment (c-Abl (mouse)) | phosphorylation enrichment (Jak2) | phosphorylation enrichment (FGFR1) |
| --- | --- | --- | --- | --- | --- | --- | --- | --- | --- | --- | --- | --- | --- | --- | --- | --- |
| EIELAYRRRPP [GRIN2B_Y1109] | 0.569 | 0.387 | 0.642 | 0.385 | 0.433 | 0.458 | 0.587 | 0.448 | 0.451 | 0.353 | 0.661 | 0.455 | 0.45 | 0.437 | 0.556 | 0.41 |
| ASRKYYAMKIL [AKT3_Y174_G171R] | 1.14 | 1.18 | 1.1 | 0.437 | 0.368 | 0.441 | 0.634 | 0.367 | 0.338 | 0.265 | 0.505 | 0.535 | 0.348 | 0.379 | 0.385 | 0.475 |
| LPSKDYAEVRR [HP_Y272_G276R] | 1.31 | 1.72 | 0.965 | 0.361 | 0.7 | 0.419 | 0.832 | 1.48 | 0.638 | 0.832 | 0.598 | 0.865 | 0.559 | 1.75 | 0.539 | 0.712 |
| CRVEPYGENFN [APOA4_Y310_R305C] | 0.712 | 0.675 | 0.703 | 0.583 | 0.608 | 0.649 | 1.57 | 0.675 | 0.651 | 0.616 | 1.28 | 0.869 | 0.441 | 1.1 | 1.28 | 0.603 |
| RRAKGYPINLF [ITGB2_Y125_D128N_YF] | 0.397 | 0.572 | 0.868 | 0.476 | 0.448 | 0.454 | 0.571 | 0.576 | 0.613 | 0.554 | 0.49 | 0.465 | 0.435 | 0.537 | 0.603 | 0.448 |
| KKKKQYKGKYL [CASK_Y708_D710G] | 0.302 | 0.436 | 0.669 | 0.629 | 0.513 | 0.444 | 0.582 | 0.502 | 0.54 | 0.75 | 0.667 | 0.584 | 0.57 | 0.529 | 0.507 | 0.474 |
| INNIDYYKNTT [FGFR2_Y656_K659N] | 0.793 | 0.662 | 1.22 | 0.428 | 0.462 | 0.359 | 0.708 | 0.392 | 0.451 | 0.378 | 0.724 | 0.538 | 0.495 | 0.574 | 0.59 | 0.535 |
| FFHCTYKKRMI [CLEC12A_Y242_YF] | 1.15 | 0.944 | 1.28 | 0.321 | 0.468 | 0.39 | 1.06 | 0.444 | 0.612 | 0.39 | 0.894 | 0.637 | 0.364 | 0.532 | 0.816 | 0.386 |
| QLAPQYTFAQG [FLNA_Y1761_YF] | 1.15 | 0.634 | 0.829 | 0.457 | 0.443 | 0.471 | 0.564 | 0.344 | 0.523 | 0.599 | 0.734 | 0.42 | 0.259 | 0.691 | 0.512 | 0.561 |
| SRNKPYISWPS [CDC42BPB_Y1638] | 1.51 | 1.32 | 1.61 | 0.441 | 0.485 | 0.345 | 0.612 | 0.417 | 0.395 | 0.483 | 0.583 | 0.511 | 0.436 | 0.477 | 0.977 | 0.469 |
| ADRSCYDLSCR [GARS1_Y467_H472R] | 0.779 | 1.17 | 1.06 | 0.445 | 0.594 | 0.474 | 0.835 | 0.487 | 0.591 | 0.616 | 0.849 | 0.55 | 0.572 | 0.847 | 0.8 | 0.499 |
| LERFIYNRQEF [HLA-DPB1_Y59_E62Q_YF] | 0.783 | 0.566 | 1.03 | 0.357 | 0.77 | 0.427 | 0.87 | 0.436 | 0.551 | 0.859 | 0.766 | 0.532 | 0.551 | 0.464 | 0.629 | 0.491 |
| LGRGKSSEVFE [CSNK2A1_Y50_Y50S] | 0.547 | 0.337 | 0.65 | 0.639 | 0.517 | 0.593 | 1.01 | 0.341 | 0.605 | 0.653 | 0.923 | 0.661 | 0.646 | 0.835 | 0.996 | 0.438 |
| QKPLDYYRVNL [GALE_Y104] | 0.672 | 0.422 | 0.937 | 0.79 | 0.908 | 0.81 | 1.27 | 6.99 | 2.35 | 1.85 | 1.77 | 14.3 | 0.697 | 2.19 | 20.5 | 17.8 |
| NRLTDYFEPLL [BBS10_Y536_YF] | 0.842 | 0.711 | 1.02 | 0.381 | 0.548 | 0.468 | 0.993 | 2.54 | 1.16 | 0.406 | 1.71 | 4.38 | 0.755 | 0.675 | 0.959 | 6.99 |
| LIGRRCDDPEV [HSPA9_Y128_Y128C] | 0.557 | 0.431 | 0.997 | 0.582 | 0.575 | 0.666 | 1.51 | 0.782 | 0.623 | 0.722 | 1.76 | 1.03 | 1.12 | 1 | 1.41 | 0.697 |
| IGMFSYVMLAS [GGCX_Y301] | 0.604 | 0.424 | 0.841 | 0.477 | 0.548 | 0.562 | 1.56 | 0.649 | 0.611 | 0.512 | 1.21 | 0.851 | 0.444 | 0.997 | 1.57 | 0.598 |

Now from value to sequence, other results behind:

| SH2 binding enrichment (SHP2-C SH2) | SH2 binding enrichment (c-Src SH2) | SH2 binding enrichment (Grb2 SH2) | Sequence | phosphorylation enrichment (MERTK) | phosphorylation enrichment (Hck) | phosphorylation enrichment (Fer (mouse)) | phosphorylation enrichment (Fes) | phosphorylation enrichment (EPHB1) | phosphorylation enrichment (EPHB2) | phosphorylation enrichment (c-Src) | phosphorylation enrichment (AncSZ) | phosphorylation enrichment (FGFR3) | phosphorylation enrichment (Fyn) | phosphorylation enrichment (c-Abl (mouse)) | phosphorylation enrichment (Jak2) | phosphorylation enrichment (FGFR1) |
| --- | --- | --- | --- | --- | --- | --- | --- | --- | --- | --- | --- | --- | --- | --- | --- | --- |
| 0.675 | 0.946 | 0.942 | VVEYGYEFFAK [PPP1CB_Y254_D252Y] | 0.601 | 0.72 | 0.835 | 1.56 | 0.798 | 0.82 | 0.719 | 2.57 | 0.995 | 0.609 | 1.09 | 1.47 | 0.762 |
| 0.781 | 0.544 | 0.952 | NTDETYCIDNE [TUBB2B_Y200] | 0.598 | 0.728 | 0.724 | 1.57 | 0.813 | 0.797 | 0.809 | 1.47 | 1.14 | 0.795 | 0.982 | 1.53 | 0.64 |
| 0.73 | 0.916 | 0.947 | SRDDFYETIAM [NPY1R_Y347_D346Y_YF] | 0.826 | 2.04 | 7.71 | 1.21 | 1.02 | 0.68 | 1.06 | 1.3 | 0.871 | 1.44 | 0.773 | 1.23 | 0.5 |
| 0.782 | 0.699 | 1.05 | AIFWRYSKFFD [SH3PXD2B_Y45_R43W_YF] | 0.323 | 0.41 | 0.49 | 1.35 | 0.493 | 0.52 | 0.326 | 0.839 | 0.805 | 0.444 | 0.959 | 1.16 | 0.445 |
| 3.19 | 2.83 | 1.58 | YFVVEYRNQKP [MUC17_Y4332_D4334N] | 4.22 | 0.605 | 0.738 | 1.36 | 0.931 | 0.842 | 0.836 | 1.72 | 9.02 | 0.842 | 0.722 | 2.32 | 11.1 |
| 0.704 | 0.766 | 0.753 | VKKNRYKDILP [PTPN12_Y64] | 0.592 | 0.507 | 0.511 | 0.988 | 0.47 | 0.471 | 0.653 | 0.709 | 0.769 | 0.466 | 0.874 | 0.839 | 0.519 |
| 2.56 | 1.73 | 1.55 | QKKPCYEIRWK [PDGFRB_Y562_R561C] | 0.67 | 1.02 | 1.02 | 1.03 | 0.958 | 1.48 | 0.361 | 1.43 | 2.08 | 0.983 | 0.652 | 0.653 | 0.914 |
| 1.02 | 0.619 | 1.04 | NTQRPYFKGGG [TYROBP_Y111_YF] | 0.454 | 0.326 | 0.437 | 0.613 | 0.429 | 0.372 | 0.461 | 0.533 | 0.467 | 0.428 | 0.574 | 0.904 | 0.364 |
| 0.911 | 0.429 | 0.915 | LESETYRRLLD [KRT12_Y429_I426S] | 0.664 | 0.697 | 0.708 | 1.66 | 0.75 | 0.836 | 0.517 | 1.44 | 1.02 | 0.684 | 0.778 | 1.07 | 0.784 |
| 0.663 | 0.611 | 1.05 | PATINYLFEKG [NDUFS8_Y84_P85L] | 0.36 | 0.562 | 0.43 | 0.891 | 0.541 | 0.529 | 0.435 | 0.754 | 0.963 | 0.357 | 0.293 | 0.703 | 0.796 |
| 0.653 | 0.572 | 0.999 | KNDSKYVVKGN [KIT_Y823_N822K] | 0.316 | 0.379 | 0.258 | 0.56 | 0.326 | 0.317 | 0.473 | 0.52 | 0.444 | 0.314 | 0.531 | 0.677 | 0.382 |
| 1.1 | 0.858 | 1.19 | CTTIHYIFMCN [TP53_Y234_N235I_YF] | 0.327 | 0.331 | 0.436 | 1.05 | 0.511 | 0.554 | 0.324 | 0.946 | 0.657 | 0.418 | 0.695 | 0.918 | 0.416 |
| 0.696 | 0.416 | 0.699 | EGQKIYIDDNN [PIP4K2A_Y246] | 0.412 | 0.548 | 0.484 | 1.15 | 0.586 | 0.539 | 0.467 | 1.04 | 0.667 | 0.568 | 0.74 | 0.984 | 0.584 |
| 1.76 | 2.99 | 2.13 | RPGSGYTNIMQ [PKLR_Y564_R569Q] | 0.524 | 0.548 | 0.466 | 0.834 | 0.61 | 0.484 | 0.597 | 0.775 | 0.517 | 0.469 | 0.549 | 0.463 | 0.763 |
| 0.663 | 2.47 | 1.75 | PTYEHYANSTQ [SLC12A3_Y70] | 0.912 | 1.53 | 0.828 | 1.2 | 1.2 | 2.33 | 5.29 | 1.05 | 0.807 | 2.56 | 0.753 | 0.924 | 0.492 |
| 0.525 | 0.449 | 0.788 | ADKAAYLQSMN [MYH2_Y389_L393M] | 0.366 | 0.436 | 0.411 | 0.761 | 0.545 | 0.419 | 0.459 | 0.499 | 0.654 | 0.415 | 0.591 | 0.609 | 0.47 |

— the supplement of paper PMC10065799, “High-throughput profiling of sequence recognition by tyrosine kinases and SH2 domains using bacterial peptide display” (eLife, 2023)
